In paper PMC3946203, “Specificity of ε and Non-ε Isoforms of Arabidopsis 14-3-3 Proteins Towards the H^+-ATPase and Other Targets” (PLoS ONE, 2014):
Where no end group is shown, it is not given here. [ ]: non-standard residue; d: D form. The star is where a group is joined. Biotin = O=C1N[C@H]2[C@H](CS[C@H]2CCCCC(=O)*)N1; pT = C[C@@H](OP(=O)(O)O)[C@H](N)C(=O)O

T1: GF14ωG213N (Arabidopsis, UniProt Q01525 1-259, G213N, 32P-phosphate on the phosphorylation site at the junction between GST and the cloned protein (bead binding assay))
T1 construct: GF14 omega, Arabidopsis, At1g78300, Gly213 changed into Asn; also called GF14ω loop 8 mutant; source: E. coli BL21(DE3), GST fusion (pGEX-2TK)
T1 sequence (looked up): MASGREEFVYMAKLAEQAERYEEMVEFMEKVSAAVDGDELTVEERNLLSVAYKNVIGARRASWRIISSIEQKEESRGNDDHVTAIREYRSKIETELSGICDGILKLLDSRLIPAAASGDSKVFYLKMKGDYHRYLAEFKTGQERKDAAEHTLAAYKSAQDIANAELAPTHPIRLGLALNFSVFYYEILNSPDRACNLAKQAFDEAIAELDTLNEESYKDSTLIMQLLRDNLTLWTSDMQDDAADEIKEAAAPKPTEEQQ

T2: GF14χ (Arabidopsis, UniProt P42643 1-267, 32P-phosphate on the phosphorylation site at the junction between GST and the cloned protein (overlay and bead binding assays))
T2 construct: 14-3-3 protein GF14 chi, Arabidopsis, At4g09000; cDNA by RT-PCR with primers corresponding to the coding region; also called GF14 chi; GST-GF14χ
T2 sequence (looked up): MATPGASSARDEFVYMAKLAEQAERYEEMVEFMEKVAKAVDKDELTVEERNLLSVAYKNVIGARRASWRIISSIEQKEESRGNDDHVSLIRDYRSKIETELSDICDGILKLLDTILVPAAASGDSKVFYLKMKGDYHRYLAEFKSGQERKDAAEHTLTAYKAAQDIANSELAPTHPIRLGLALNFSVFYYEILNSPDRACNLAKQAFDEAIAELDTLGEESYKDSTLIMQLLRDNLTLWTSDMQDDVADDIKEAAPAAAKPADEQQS

T3: GF14κ (Arabidopsis, UniProt P48348 1-248, 32P-phosphate on the phosphorylation site at the junction between GST and the cloned protein (overlay and bead binding assays))
T3 construct: 14-3-3 protein GF14 kappa, Arabidopsis, At5g65430; cDNA by RT-PCR with primers corresponding to the coding region; also called GF14 kappa; GST-GF14κ
T3 sequence (looked up): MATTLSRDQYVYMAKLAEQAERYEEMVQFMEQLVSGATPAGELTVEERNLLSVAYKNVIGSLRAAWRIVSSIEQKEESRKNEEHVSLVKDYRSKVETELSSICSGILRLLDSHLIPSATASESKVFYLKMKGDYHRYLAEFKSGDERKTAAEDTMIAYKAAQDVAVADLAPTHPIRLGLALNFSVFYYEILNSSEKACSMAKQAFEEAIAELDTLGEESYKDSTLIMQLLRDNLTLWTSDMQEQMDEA

T4: GF14λ (Arabidopsis, UniProt P48349 1-248, 32P-phosphate on the phosphorylation site at the junction between GST and the cloned protein (overlay and bead binding assays))
T4 construct: 14-3-3 protein GF14 lambda, Arabidopsis, At5g10450; cDNA by RT-PCR with primers corresponding to the coding region; also called GF14 lambda; GST-GF14λ
T4 sequence (looked up): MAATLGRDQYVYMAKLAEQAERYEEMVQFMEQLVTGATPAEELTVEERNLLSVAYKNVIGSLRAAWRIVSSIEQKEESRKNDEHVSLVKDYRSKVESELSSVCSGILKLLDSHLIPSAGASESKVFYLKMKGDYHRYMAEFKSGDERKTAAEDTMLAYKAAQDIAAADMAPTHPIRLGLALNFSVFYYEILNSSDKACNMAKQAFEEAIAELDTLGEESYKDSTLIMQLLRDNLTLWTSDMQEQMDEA

B1: bL15Vp peptide (peptide)
peptide: Biotin-LKGLDIDTIQQNY[pT]V
notes: last 15 amino acids of the maize plasma membrane H+-ATPase isoform 2 (MHA2); also called phosphorylated biotinyl-peptide reproducing the last 15 residues of the MHA2 H+-ATPase; source: synthetic peptide (Neosystem, Strasbourg)
B2: GF14εN211G (natural protein, Arabidopsis, UniProt P48347 1-254, looked up)
chain: MENEREKQVYLAKLSEQTERYDEMVEAMKKVAQLDVELTVEERNLVSVGYKNVIGARRASWRILSSIEQKEESKGNDENVKRLKNYRKRVEDELAKVCNDILSVIDKHLIPSSNAVESTVFFYKMKGDYYRYLAEFSSGAERKEAADQSLEAYKAAVAAAENGLAPTHPVRLGLALNFSVFYYEILNSPESACQLAKQAFDDAIAELDSLGEESYKDSTLIMQLLRDNLTLWTSDLNEEGDERTKGADEPQDEN
modifications: 32P-phosphate on the phosphorylation site at the junction between GST and the cloned protein (bead binding assay)
notes: GF14 epsilon, Arabidopsis, At1g22300, Asn211 changed into Gly; also called GF14ε loop 8 mutant; source: E. coli BL21(DE3), GST fusion (pGEX-2TK)

Tests used:
Settings in all cases: both partners purified
GF14εN211G = target: B2; assay: pull-down; bL15Vp on streptavidin-agarose magnetic beads; 0.1 nmol 32P-labeled GF14 wild type or loop 8 mutant in buffer HT without Mg2+; FC not told for this experiment
GF14ωG213N = target: T1, GF14ωG213N; assay: pull-down; bL15Vp on streptavidin-agarose magnetic beads; 0.1 nmol 32P-labeled GF14 wild type or loop 8 mutant in buffer HT with 5 mM Mg2+; FC not told for this experiment
GF14χ = target: T2, GF14χ; assay: pull-down; 0.05 nmol bL15Vp on streptavidin-agarose magnetic beads; 0.1 nmol 32P-labeled GF14 in 50 µl buffer HT, 60 min, room temperature; without FC; bound radioactivity counted
GF14κ = target: T3, GF14κ; assay: as above
GF14λ = target: T4, GF14λ; assay: as above
bL15Vp peptide = target: B1; assay: pull-down; bL15Vp on streptavidin-agarose magnetic beads; 0.1 nmol 32P-labeled GF14 wild type or loop 8 mutant in buffer HT with 5 mM Mg2+; FC not told for this experiment

binding result (GF14εN211G) | binding result (GF14ωG213N) | binding result (GF14χ) | binding result (GF14κ) | binding result (GF14λ) | fold more protein bound with 5 mM Mg2+ (reference not clear: wild type GF14ε or the mutant without Mg2+) (bL15Vp peptide) [fold] | Binder
binds | binds | binds | binds | binds | – | B1
– | – | – | – | – | > 5 | B2
